Our source for the switch fluorescence ratio values is the supplement of paper PMC10126150.

± gives the standard deviation of the averaged measurements.
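Also: ATP exposure 15 min at 22 °C before imaging.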

In the data set the test system is ATP. The data set can be described thus: switch fluorescence ratio, 500 uM ATP over buffer (Cy3 cluster intensity, sum of 5 cycles each) (fold (ratio)); higher = stronger signal-on switching upon ATP binding; sequences stand for … in TCGTCGGCAGCGTCAGATGTGTATAAGAGACAGTTTTTTTTTTTTTTTTTTTTTTTTT…TC. As to conditions: aptamer strand: ATP DNA aptamer (quencher-CACCTGGGGGAGTATTGCGGAGGAAGG + anchor), 100 nM annealed; ATP concentration: 500 uM. Summed up:
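Values give the fluorescence ratio for each switch-domain sequence, averaged from per-cluster ratios of summed target-cycle to summed buffer-cycle Cy3 intensity. The Cy3-labelled switching-strand clusters sat on a modified Illumina MiSeq flow-cell, were annealed to 100 nM quencher-labelled ATP aptamer, and were imaged in selection buffer, then after 15 min with 500 uM ATP at 22 °C. Five cycles ran with NaOH stripping and re-annealing between them, and clusters outside 100-1000 RFU were excluded.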
On to GAAAAAAGAT, for which the switch fluorescence ratio was determined as 1.02 ± 0.014. As for TTTGAATCG, the switch fluorescence ratio stood at 1.01 ± 0.021. With AACTAGATG the figure was 0.982 ± 0.025; with TGCGCCCGTT, 1 ± 0.033. With TTAGATATAT the figure was 0.996 ± 0.036. Consider CTGAATTAAG, for which the switch fluorescence ratio turned out to be 0.99 ± 0.016. With ATGTGGGCGG the figure was 0.991 ± 0.028; with GATGTGTTTC, 1.03 ± 0.06. With ATGATTCCTT the figure was 1 ± 0.03; with TGTGTGGTGT, 0.993 ± 0.036. As to GGTTCTGTCC, the switch fluorescence ratio was found to be 1.03 ± 0.021.

On to GGGGTAATCC, for which the switch fluorescence ratio was found to be 1.07 ± 0.14. Consider TGGCGGGGGG, for which the switch fluorescence ratio turned out to be 0.994 ± 0.035. Regarding TTATATACAG, the switch fluorescence ratio is 1.058 ± 0.0062. For the sequence GGTGTGGTCA, the switch fluorescence ratio is 0.977 ± 0.035. On to TTTTTTTAA, for which the switch fluorescence ratio amounted to 0.991 ± 0.026. GATTCGCCTG: the switch fluorescence ratio amounted to 0.99 ± 0.016. Turning to CGTCCGGATG, the switch fluorescence ratio was found to be 1.19 ± 0.13. With CGGTTTGCGG the figure was 0.982 ± 0.017. As for GCTAATGGGA, the switch fluorescence ratio amounted to 0.994 ± 0.018. For TTGTTAGTGG, the switch fluorescence ratio was 1.01 ± 0.031. In the case of TATTCGTATT, the switch fluorescence ratio was 0.981 ± 0.029.

For GATATTGTGG, the switch fluorescence ratio came out at 0.987 ± 0.025. With GGTCTGGGGG the figure was 0.955 ± 0.012; with CCGGGGAACG, 1.08 ± 0.048. Take ACGGTCCAAG: the switch fluorescence ratio is 1.02 ± 0.015.

Regarding GATGACAGGT, the switch fluorescence ratio came out at 1.03 ± 0.041. Turning to TATGGTTTTG, the switch fluorescence ratio was found to be 1.01 ± 0.017. For the sequence TTGTTTTTTG, the switch fluorescence ratio came to 1.01 ± 0.034. As for TAGTGGGTTA, the switch fluorescence ratio turned out to be 0.974 ± 0.023. On to AATGTCTCAG, for which the switch fluorescence ratio turned out to be 1.014 ± 0.0091.

ATTCCCGGAT: the switch fluorescence ratio was 1.04 ± 0.046. With TCATACCCTG the figure was 1.024 ± 0.0061; with TTGATCTGCT, 0.987 ± 0.023; with TGCTTATGGT, 0.965 ± 0.029. As for CTGTAGGTGT, the switch fluorescence ratio amounted to 1.06 ± 0.029. On to AATTTGGTTT, for which the switch fluorescence ratio was 1.02 ± 0.021. With GGGTTTCGAT the figure was 0.984 ± 0.024; with TAAAAACTGG, 0.975 ± 0.045; with ACGTTGTACT, 1.14 ± 0.037. For AGCTATAGTA, the switch fluorescence ratio stood at 0.991 ± 0.01. Take AGGAGGCATT: the switch fluorescence ratio turned out to be 1.02 ± 0.02. As to ACTACGGATT, the switch fluorescence ratio was 1.06 ± 0.026. For the sequence AGAGGTAAGA, the switch fluorescence ratio came to 0.9911 ± 0.0084.

Turning to TTATATTCGC, the switch fluorescence ratio was 1.02 ± 0.084. Turning to TTTGGGCCTG, the switch fluorescence ratio was found to be 1.001 ± 0.0022. With CCAAACAGGA the figure was 1.006 ± 0.0063. Regarding ATTAGTAAGG, the switch fluorescence ratio came out at 1.01 ± 0.011. On to GCTTTTGTGG, for which the switch fluorescence ratio turned out to be 0.986 ± 0.035. GATTCCGAGC: the switch fluorescence ratio was determined as 1.44 ± 0.53. Consider TTTGGGGATG, for which the switch fluorescence ratio stood at 1 ± 0.033.

Consider TCAAGGGCGG, for which the switch fluorescence ratio came to 0.988 ± 0.044. With TTGAGGAAGG the figure was 0.9835 ± 0.0018; with GTGGGGGCGC, 1.04 ± 0.022; with TCTTGTGAGT, 0.984 ± 0.012. TTAGGGTCT: the switch fluorescence ratio was 1.01 ± 0.022. Consider TAAACTACAT, for which the switch fluorescence ratio worked out at 1.006 ± 0.005. With AGGGAGAATT, the switch fluorescence ratio was determined as 1 ± 0.013.

Consider TGGTTCATCG, for which the switch fluorescence ratio was 0.97771 ± 0.00071. With CCAGCTGGAG the figure was 0.997 ± 0.025.

As for GAAGGGGTCC, the switch fluorescence ratio turned out to be 1 ± 0.042. CTTAGAATCG: the switch fluorescence ratio was 1 ± 0.025. TTTTCCAAAG: the switch fluorescence ratio was found to be 1.01 ± 0.055. For the sequence TAAGTGTTAG, the switch fluorescence ratio was found to be 1.013 ± 0.0074. With TAGCGGGCGC, the switch fluorescence ratio is 0.986 ± 0.032. As to TGGGTTATTG, the switch fluorescence ratio is 0.998 ± 0.019. Consider CCTGCTCATC, for which the switch fluorescence ratio is 1.99 ± 0.22. As to CGTTTTTGTA, the switch fluorescence ratio came to 0.99 ± 0.015. GGAGATTTGG: the switch fluorescence ratio amounted to 0.979 ± 0.011. Regarding ACCCCATGCG, the switch fluorescence ratio amounted to 1.22 ± 0.037. TTTTATTTGG: the switch fluorescence ratio was determined as 0.983 ± 0.018. On to TCCTTCACGA, for which the switch fluorescence ratio was 2.067 ± 0.017. For the sequence TCGTGAAGAG, the switch fluorescence ratio was determined as 0.987 ± 0.012. As for CCTAGGGGTT, the switch fluorescence ratio was 1.09 ± 0.064. For CCCCAATTT, the switch fluorescence ratio was 0.999 ± 0.025.

For the sequence TTGGTGTTGT, the switch fluorescence ratio was 0.989 ± 0.027. As to TCTGGAATAA, the switch fluorescence ratio came out at 1.66 ± 0.057. Turning to TATCATTTTG, the switch fluorescence ratio is 0.986 ± 0.057. Take TTTTGGCTCC: the switch fluorescence ratio stood at 0.99685 ± 0.00035. For the sequence TAGGGCATTG, the switch fluorescence ratio was determined as 1.01 ± 0.012. Turning to GGGTGGCCTA, the switch fluorescence ratio turned out to be 1 ± 0.015. As to GGTTAAGCTT, the switch fluorescence ratio was determined as 1.007 ± 0.0078. With CGATTCTGCT the figure was 0.996 ± 0.036; with ATGTTTGGTG, 0.97 ± 0.019; with AATTGTAGTA, 0.996 ± 0.051. As for GCACGGAGGG, the switch fluorescence ratio was 1.01 ± 0.023. Take GGTTAGGGGG: the switch fluorescence ratio is 1 ± 0.052.

On to TGGTTTGGCC, for which the switch fluorescence ratio turned out to be 0.97 ± 0.018. With TTTATGGCCC, the switch fluorescence ratio came to 1.01 ± 0.064. Turning to CATTTATAGT, the switch fluorescence ratio stood at 0.9799 ± 0.0083. For TTTTCCGTAT, the switch fluorescence ratio came to 1.18 ± 0.025. Regarding GGTTCAACGG, the switch fluorescence ratio is 0.982 ± 0.014. Regarding AGGTATGGGG, the switch fluorescence ratio turned out to be 0.998 ± 0.034. In the case of TTTTTCTACC, the switch fluorescence ratio stood at 1.035 ± 0.0091. Take GTGATCTTTT: the switch fluorescence ratio was 1 ± 0.049.

TTTCGACCGA: the switch fluorescence ratio stood at 1.03 ± 0.033. With GGTAAGGGGA the figure was 0.991 ± 0.033; with ATCCAGACGG, 1.04 ± 0.026; with TTGTCCCCGG, 1.58 ± 0.68.

Turning to GGGTGAACTC, the switch fluorescence ratio was found to be 0.988 ± 0.031. With TCGGGGGGTT the figure was 0.998 ± 0.034; with TTACTCTTCG, 1.062 ± 0.0074; with GATGGGAAAT, 1 ± 0.012.

With CGGGATTAGC, the switch fluorescence ratio is 0.983 ± 0.022. With TGCGCCTGGG the figure was 1.03 ± 0.013; with CAATTGGGTG, 1.06 ± 0.022; with TATGGCTTTG, 0.9945 ± 0.0061. Take GGATTATTG: the switch fluorescence ratio was found to be 0.98 ± 0.032. With GGGTTGTCTG the figure was 0.961 ± 0.063. As for TTGAATTTCT, the switch fluorescence ratio turned out to be 0.992 ± 0.016. With TTTAAGAGCG the figure was 1.02 ± 0.013. As to TTCCCGGGGA, the switch fluorescence ratio is 1.24 ± 0.4. As to ACATACATTG, the switch fluorescence ratio was determined as 1.27 ± 0.061. With TATGGAATTT the figure was 0.985 ± 0.009. For TTATTAGCAA, the switch fluorescence ratio stood at 1.93 ± 1.4.

Regarding CATTTTCCGC, the switch fluorescence ratio came to 1.81 ± 0.57.

Consider CTCGGGGGGC, for which the switch fluorescence ratio worked out at 0.992 ± 0.063. Regarding TTCAATGGCT, the switch fluorescence ratio worked out at 0.983 ± 0.046. With CGGTGGGGGA, the switch fluorescence ratio is 0.986 ± 0.025.

GGTAATGGCA: the switch fluorescence ratio is 1.01 ± 0.039.
